pKd: −log10 of the molar value.
Columns and labels:
Assay in all cases: IEDB peptide-MHC binding, purified MHC/competitive/radioactivity; filed as Kd, often an IC50 or EC50 that approximates it; ≥ and ≤ were set here for values at or beyond the usual limits of such assays
HLA-A*03:01 = biological target: HLA-A*03:01
HLA-A*11:01 = biological target: HLA-A*11:01
HLA-A*31:01 = biological target: HLA-A*31:01
HLA-A*33:01 = biological target: HLA-A*33:01
HLA-A*68:01 = biological target: HLA-A*68:01
[1] = source organism: Lassa virus Josiah
[2] = source organism: SARS coronavirus Tor2
[3] = source organism: Dengue virus 3 Martinique/1243/1999
[4] = source organism: Vaccinia virus WR
[5] = source organism: Mammarenavirus juninense
[6] = source organism: Dengue virus 1 Brazil/97-11/1997
[7] = source organism: Vaccinia virus Copenhagen
[8] = source organism: Dengue virus 2 Jamaica/1409/1983
[9] = source organism: Triticum aestivum
[10] = source organism: Lymphocytic choriomeningitis virus (strain Armstrong)

LTYSQLMTLK
pKd (HLA-A*03:01; [1]): 7.53
pKd (HLA-A*11:01; [1]): 7.94
pKd (HLA-A*31:01; [1]): 5.71
pKd (HLA-A*33:01; [1]): 4.97
pKd (HLA-A*68:01; [1]): 8.30

GQGQNSADPK
pKd (HLA-A*33:01; [2]): ≤ 4.15
pKd (HLA-A*68:01; [2]): ≤ 4.15

HTWQKQTQR
pKd (HLA-A*31:01; [3]): 8.54
pKd (HLA-A*33:01; [3]): 7.24

EIINDKGKQY
pKd (HLA-A*03:01; [4]): ≤ 4.15
pKd (HLA-A*11:01; [4]): ≤ 4.16
pKd (HLA-A*31:01; [4]): 4.89
pKd (HLA-A*33:01; [4]): ≤ 4.15
pKd (HLA-A*68:01; [4]): 5.40

RLCLFDRYFK
pKd (HLA-A*03:01; [2]): 7.62
pKd (HLA-A*11:01; [2]): 7.25
pKd (HLA-A*31:01; [2]): 7.34
pKd (HLA-A*33:01; [2]): 5.71
pKd (HLA-A*68:01; [2]): 6.06

GMNDYLGIFK
pKd (HLA-A*03:01; [4]): 8.54
pKd (HLA-A*11:01; [4]): 8.37
pKd (HLA-A*31:01; [4]): 6.41
pKd (HLA-A*33:01; [4]): 5.22
pKd (HLA-A*68:01; [4]): 6.24

SKQYIHCFRK
pKd (HLA-A*03:01; [5]): 5.35
pKd (HLA-A*11:01; [5]): 5.82
pKd (HLA-A*31:01; [5]): 6.05
pKd (HLA-A*33:01; [5]): ≤ 4.58
pKd (HLA-A*68:01; [5]): 5.60

GFPFNKWGK
pKd (HLA-A*03:01; [2]): ≤ 4.68
pKd (HLA-A*11:01; [2]): 6.18
pKd (HLA-A*31:01; [2]): 6.14
pKd (HLA-A*33:01; [2]): 4.75
pKd (HLA-A*68:01; [2]): 4.76

STQSVLCVKK
pKd (HLA-A*03:01; [4]): 6.93
pKd (HLA-A*11:01; [4]): 9.80
pKd (HLA-A*31:01; [4]): 6.74
pKd (HLA-A*68:01; [4]): 8.45

MTLDDLAIK
pKd (HLA-A*03:01; [4]): 6.03
pKd (HLA-A*11:01; [4]): 7.43
pKd (HLA-A*31:01; [4]): 6.39
pKd (HLA-A*33:01; [4]): 5.63
pKd (HLA-A*68:01; [4]): 7.40

GIFTTNIWLK
pKd (HLA-A*03:01; [6]): 7.84
pKd (HLA-A*11:01; [6]): 7.90

MSRVRISLIY
pKd (HLA-A*03:01; [4]): 6.57
pKd (HLA-A*11:01; [4]): 6.26
pKd (HLA-A*31:01; [4]): 5.51
pKd (HLA-A*33:01; [4]): 4.97
pKd (HLA-A*68:01; [4]): 6.58

VVGAGGVGK
pKd (HLA-A*03:01; source organism: Homo sapiens): 6.90
pKd (HLA-A*11:01; source organism: Homo sapiens): 7.04

YTFAISYCR
pKd (HLA-A*03:01; [7]): 5.56
pKd (HLA-A*11:01; [7]): 8.47
pKd (HLA-A*31:01; [7]): 9.03
pKd (HLA-A*33:01; [7]): 8.76
pKd (HLA-A*68:01; [7]): 9.38

ILARRPTPKK
pKd (HLA-A*03:01; [7]): 8.77
pKd (HLA-A*11:01; [7]): 8.40
pKd (HLA-A*31:01; [7]): 4.74
pKd (HLA-A*33:01; [7]): ≤ 4.15
pKd (HLA-A*68:01; [7]): 5.62

ALNDMGKVRK
pKd (HLA-A*03:01; [8]): 7.44

NVVHAIILH
pKd (HLA-A*03:01; [9]): 4.71
pKd (HLA-A*11:01; [9]): ≤ 4.37
pKd (HLA-A*31:01; [9]): 4.85
pKd (HLA-A*33:01; [9]): ≤ 4.61
pKd (HLA-A*68:01; [9]): 5.83

PTKRCRLLK
pKd (HLA-A*03:01; [4]): 5.96
pKd (HLA-A*11:01; [4]): 5.98
pKd (HLA-A*31:01; [4]): 5.27
pKd (HLA-A*33:01; [4]): ≤ 4.63
pKd (HLA-A*68:01; [4]): ≤ 4.64

NLKQLPFFYY
pKd (HLA-A*03:01; [2]): ≤ 4.44
pKd (HLA-A*11:01; [2]): 5.27
pKd (HLA-A*31:01; [2]): ≤ 4.15
pKd (HLA-A*33:01; [2]): ≤ 4.15
pKd (HLA-A*68:01; [2]): ≤ 5.00

RLFRSPQVK
pKd (HLA-A*03:01; [4]): 7.06
pKd (HLA-A*11:01; [4]): 6.15
pKd (HLA-A*31:01; [4]): 5.30
pKd (HLA-A*33:01; [4]): 4.82
pKd (HLA-A*68:01; [4]): 5.44

SQLAKRFSK
pKd (HLA-A*11:01; [6]): 7.30

TAGPWHLGK
pKd (HLA-A*11:01; [8]): 7.18

ESNILDIDLR
pKd (HLA-A*68:01; [8]): 6.80

GFTATICLK
pKd (HLA-A*03:01; [7]): 5.72
pKd (HLA-A*11:01; [7]): 7.39
pKd (HLA-A*31:01; [7]): 5.76
pKd (HLA-A*33:01; [7]): 6.33
pKd (HLA-A*68:01; [7]): 7.09

RMLINRFTMK
pKd (HLA-A*03:01; [8]): 8.21
pKd (HLA-A*11:01; [8]): 6.48

CSRMLDTSEK
pKd (HLA-A*03:01; [4]): 6.00
pKd (HLA-A*11:01; [4]): 5.79
pKd (HLA-A*31:01; [4]): 5.81
pKd (HLA-A*33:01; [4]): ≤ 4.15
pKd (HLA-A*68:01; [4]): 5.11

SYVMCTGSFK
pKd (HLA-A*03:01; [6]): 6.95
pKd (HLA-A*33:01; [6]): 7.75

DHVSTLLTWH
pKd (HLA-A*03:01; [10]): ≤ 4.65
pKd (HLA-A*11:01; [10]): ≤ 4.16
pKd (HLA-A*31:01; [10]): 5.06
pKd (HLA-A*33:01; [10]): ≤ 4.15
pKd (HLA-A*68:01; [10]): 4.91

GSCVTTMAK
pKd (HLA-A*11:01; [8]): 6.94

KSAAIDGEYR
pKd (HLA-A*31:01; [6]): 8.39
pKd (HLA-A*68:01; [6]): 6.87

VTFLLLCGR
pKd (HLA-A*03:01; [1]): 5.51
pKd (HLA-A*11:01; [1]): 7.74
pKd (HLA-A*31:01; [1]): 7.74
pKd (HLA-A*33:01; [1]): 6.88
pKd (HLA-A*68:01; [1]): 7.86

FFTYLCGFIK
pKd (HLA-A*03:01; [2]): 6.36
pKd (HLA-A*11:01; [2]): 6.02
pKd (HLA-A*31:01; [2]): 6.21
pKd (HLA-A*33:01; [2]): 5.92
pKd (HLA-A*68:01; [2]): 6.69

VLEIINDKGK
pKd (HLA-A*03:01; [4]): 5.00
pKd (HLA-A*11:01; [4]): 5.60
pKd (HLA-A*31:01; [4]): ≤ 4.15
pKd (HLA-A*33:01; [4]): ≤ 4.15
pKd (HLA-A*68:01; [4]): ≤ 4.15

SIMKNTTNTR
pKd (HLA-A*31:01; [8]): 6.17
pKd (HLA-A*68:01; [8]): 6.86

ATEGALNTPK
pKd (HLA-A*03:01; [2]): 7.09
pKd (HLA-A*11:01; [2]): 8.33
pKd (HLA-A*31:01; [2]): 5.55
pKd (HLA-A*33:01; [2]): ≤ 4.35
pKd (HLA-A*68:01; [2]): 6.66

IILANERYR
pKd (HLA-A*03:01; [4]): 5.02
pKd (HLA-A*11:01; [4]): 5.18
pKd (HLA-A*31:01; [4]): 6.97
pKd (HLA-A*33:01; [4]): 5.56
pKd (HLA-A*68:01; [4]): 7.03

TQWSLFFFVY
pKd (HLA-A*03:01; [2]): 5.60
pKd (HLA-A*11:01; [2]): 6.45
pKd (HLA-A*31:01; [2]): 5.80
pKd (HLA-A*33:01; [2]): 5.86
pKd (HLA-A*68:01; [2]): 5.17

TTYDFLARK
pKd (HLA-A*03:01; [4]): 7.32
pKd (HLA-A*11:01; [4]): 9.40
pKd (HLA-A*31:01; [4]): 7.09
pKd (HLA-A*33:01; [4]): 5.07
pKd (HLA-A*68:01; [4]): 6.98

GINNVQSLIK
pKd (HLA-A*03:01; [4]): 6.77
pKd (HLA-A*11:01; [4]): 7.76
pKd (HLA-A*31:01; [4]): 4.79
pKd (HLA-A*33:01; [4]): ≤ 4.15
pKd (HLA-A*68:01; [4]): 4.99

DIALALEQY
pKd (HLA-A*03:01; [4]): ≤ 4.11
pKd (HLA-A*11:01; [4]): ≤ 4.11
pKd (HLA-A*31:01; [4]): 4.98
pKd (HLA-A*33:01; [4]): ≤ 4.62
pKd (HLA-A*68:01; [4]): 6.44

GVIDTMRIY
pKd (HLA-A*03:01; [4]): 5.77
pKd (HLA-A*11:01; [4]): 7.07
pKd (HLA-A*31:01; [4]): 6.00
pKd (HLA-A*33:01; [4]): 4.94
pKd (HLA-A*68:01; [4]): 5.52

From the Immune Epitope Database (IEDB)
